Positions count from the first letter of the chain named. In names and notes the source's numbering stands.

The record followed here is patent US20190040130A1 (Alector, published 2019).

Assay [1] has as its target T1, human TREM2/DAP12 fusion protein in BW5147.G.1.4 NFAT-luciferase reporter cells (human, UniProt O43914 41-113, limits assumed). Nature of the assay: cell-based or functional assay.
Assay [2] addresses T2, human TREM2 expressed on cells (human, UniProt Q9NZC2 19-230).
T2 construct: also called huT2 BW; cell expressed TREM2
T2 sequence: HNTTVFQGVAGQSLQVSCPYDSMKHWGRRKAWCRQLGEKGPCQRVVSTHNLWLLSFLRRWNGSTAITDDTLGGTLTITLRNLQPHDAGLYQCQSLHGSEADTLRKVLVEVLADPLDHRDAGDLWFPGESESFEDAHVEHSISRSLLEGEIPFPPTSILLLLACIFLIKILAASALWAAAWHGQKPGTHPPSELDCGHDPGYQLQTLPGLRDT
Description: FACS, BW cells. As for the experimental part: To examine cell binding of anti-TREM2 antibodies, recombinant, human TREM2-expressing BW5147. G.1.4 cells (ATCC® TIB48™) were established by stably expressing either mouse TREM2 or human TREM2 together with Dap12 using viral infection. Cells were harvested by scraping, washed in PBS, counted and plated on 96-well U bottom plates at 1×10⁵ cells/well. The plates were spun at 1,400 rpm for 3 minutes and primary anti-TREM2 or control antibodies were added in FACS buffer (PBS+2% FBS) and incubated on ice for one hour. Cells were subsequently centrifuged as before and washed thrice with FACS buffer. Cells were then incubated with anti-human PE conjugated secondary antibody (BD Biosciences) in FACS buffer for 30 minutes on ice. Cells were again washed thrice with FACS buffer and analyzed on a BD FACS Canto. Binding was measured as mean fluorescence intensity in the […].

Assay [3] concerns the target T1, human TREM2/DAP12 fusion protein in …. Nature of the assay: cell-based or functional assay. This is another data set of the same source.
For assay [4] the target is unchanged. Nature of the assay: cell-based or functional assay. The source holds these as a separate data set.
Assay [5] shares this target. Description: cell-based or functional assay. This is another data set of the same source.
Assay [6] addresses T2, human TREM2 expressed on cells. Description: cell-based or functional assay.
For assay [7], the target named is T1, human TREM2/DAP12 fusion protein in …. Nature of the assay: cell-based or functional assay. This is another data set of the same source.
The target is the same in assay [8]. Nature of the assay: cell-based or functional assay. This is another data set of the same source.
Assay [9] shares this target. Description: cell-based or functional assay. This is another data set of the same source.
Assay [10] has the same target. Nature of the assay: cell-based or functional assay. The source holds these as a separate data set.

B1: AL2p-58 huIgG1 PSEG (antibody)
heavy: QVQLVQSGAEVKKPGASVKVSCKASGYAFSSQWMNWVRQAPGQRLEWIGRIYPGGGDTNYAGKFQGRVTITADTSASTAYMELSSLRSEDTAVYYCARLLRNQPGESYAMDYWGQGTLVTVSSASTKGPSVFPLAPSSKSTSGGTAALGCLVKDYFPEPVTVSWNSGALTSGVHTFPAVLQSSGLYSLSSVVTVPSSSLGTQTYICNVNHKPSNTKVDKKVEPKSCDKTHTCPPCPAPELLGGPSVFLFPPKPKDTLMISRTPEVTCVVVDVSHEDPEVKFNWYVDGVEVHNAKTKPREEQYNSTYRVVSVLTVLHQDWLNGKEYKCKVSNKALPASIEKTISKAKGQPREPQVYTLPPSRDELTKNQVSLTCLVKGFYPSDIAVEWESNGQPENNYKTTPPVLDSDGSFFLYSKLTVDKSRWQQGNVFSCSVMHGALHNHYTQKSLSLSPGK
light: DVVMTQSPDSLAVSLGERATINCRSSQSLVHSNRYTYLHWYQQKPGQSPKLLIYKVSNRFSGVPDRFSGSGSGTDFTLKISRVEAEDVGVYYCSQSTRVPYTFGQGTKLEIKRTVAAPSVFIFPPSDEQLKSGTASVVCLLNNFYPREAKVQWKVDNALQSGNSQESVTEQDSKDSTYSLSSTLTLSKADYEKHKVYACEVTHQGLSSPVTKSFNRGEC
In the case of B1, the “plate bound signal activation, fold over AL2p” value in [1] is 10 fold.

B2: AL2p (parental mouse anti-TREM2 antibody) (antibody, human IgG1, V domains shown)
VH: QVQLQQSGPELVKPGASLKISCKASGYAFSSSWMNWVKQRPGKGLEWIGRIYPGDGDTNYNGEFRVRATLTADTSSTTAYMQLSSLTSEDSAVYFCARLLRNQPGESYAMDYWGQGASVTVSS
VL: DVVMTQTPLSLPVSLGDQASISCRSSQSLVHSNGYTYLHWYLQKPGQSPKLLIYKVSNRFSGVPDRFSGSGSGTDFTLKISRVEADDLGVYFCSQSTRVPYTFGGGTKLEIK
notes: Mouse variable regions; tested as Fab, as human-mouse chimera (human IgG1 Fc) and as msIgG1; see assay; also called 9F5; 9F5a
B2: the “Cell binding (FOB)” value in [2] was 79 fold over background. The “EC50 (read off the curve); NFAT:luciferase luminescence, BWZ reporter cells, soluble antibody, 6 h” value in [3] was about 2 µg/mL. Moreover, in [4], the “EC50 (read off the curve); NFAT:luciferase luminescence, BWZ reporter cells co-cultured 1:1 with THP-1 cells, 6 h” value was about 1 µg/mL.

B3: AL2p huIgG1 E430G (antibody, V domains shown)
VH: B2 VH
VL: B2 VL
B3: in [4], the “EC50 (read off the curve); NFAT:luciferase luminescence, BWZ reporter cells co-cultured 1:1 with THP-1 cells, 6 h” value is about 0.3 µg/mL.

B4: AL2p-58 (antibody, V domains shown)
VH: QVQLVQSGAEVKKPGASVKVSCKASGYAFSSQWMNWVRQAPGQRLEWIGRIYPGGGDTNYAGKFQGRVTITADTSASTAYMELSSLRSEDTAVYYCARLLRNQPGESYAMDYWGQGTLVTVSS
VL: DVVMTQSPDSLAVSLGERATINCRSSQSLVHSNRYTYLHWYQQKPGQSPKLLIYKVSNRFSGVPDRFSGSGSGTDFTLKISRVEAEDVGVYYCSQSTRVPYTFGQGTKLEIK
For the molecule B4, the “EC50 (read off the curve); NFAT:luciferase luminescence, BW reporter cells, soluble IgG” value in [5] was about 1 µg/mL.

B5: AL2p-60 (antibody, IgG1, V domains shown)
VH: B4 VH with A16S, R44G, I48M, G62R, T74E, A76T
VL: GVVMTQTPLSLSVTPGQPASISCRSSQSLVHSNRYTYLHWYLQKPGQSPQLLIYKVSNRRSGVPDRFSGSGSGTDFTLKISRVEAEDVGVYYCSQSTRVPYTFGQGTKLEIK
Take B5: in [6], the “viability EC50, dendritic cells D558” value amounted to 0.152 nM; the “viability EC50, dendritic cells D559” value was found to be 0.244 nM; the “viability EC50, dendritic cells D560” value is 0.178 nM; the “viability EC50, macrophages D559” value was 0.194 nM. For the same molecule, the “viability EC50, macrophages D560” value in [6] is 0.154 nM.

B6: AL2p-31 msFc (antibody, V domains shown)
VH: B4 VH with A16S, R44G, I48M, G62R, T74E, A76T
VL: B5 VL with R34G
Take B6: the “EC50 (read off the curve); NFAT:luciferase luminescence, BWZ reporter cells, soluble IgG” value in [7] was about 0.8 µg/mL. Besides, the “EC50 (read off the curve); NFAT:luciferase luminescence, BWZ reporter cells, plate bound IgG” value in assay [8] is about 3 µg/mL.

B7: AL2p-h90 (antibody, IgG1, V domains shown)
VH: B4 VH with Q32S, G55D, G62Q
VL: DVQMTQSPSSLSASVGDRVTITCRSSQSLVHSNGYTYLHWYQQKPGKSPKLLIYKVSNRFSGVPSRFSGSGSGTDFTLTISSLQPEDFATYYCSQSTRVPYTFGGGTKVEIK
notes: IgG1; Fab in monovalent BLI
In the case of B7, in assay [2], the “Cell binding (FOB)” value is 126 fold over background.

B8: AL2p-h43 (antibody, IgG1, V domains shown)
VH: B4 VH with V18L, Q32S, G55D, A61N, K63E, Q65R, G66V, V68A, I70L, Y95F
VL: B5 VL with G1D, R34G, R60F
notes: IgG1; Fab in monovalent BLI
As to B8, the “Cell binding (FOB)” value in assay [2] was found to be 91 fold over background.

B9: AL2p-58 msFc (antibody)
chain 1: B4 VH
chain 2: B4 VL
Turning to B9, the “EC50 (read off the curve); NFAT:luciferase luminescence, BWZ reporter cells, soluble IgG” value in assay [7] is about 0.7 µg/mL.

B10: AL2p-14 (antibody, IgG1, V domains shown)
VH: B4 VH with A16S, Q32H, R44G, I48M, G55D, G62Q, T74E, A76T
VL: B5 VL with Q27R, R34G, R60F
For B10, in [9], the “Luciferase activation plate bound 33 nM IgG” value turned out to be 22.1 FOC.

B11: AL2p-59 (antibody, V domains shown)
VH: B4 VH with A16S, Q32H, R44G, I48M, G55E, D57Q, G62Q, F64R, T74E, A76T
VL: B5 VL with S25T, R34Q, R60V
As to B11, the “EC50 (read off the curve); NFAT:luciferase luminescence, BW reporter cells, soluble IgG” value in assay [5] is about 2 µg/mL.

B12: AL2p-h76 (antibody, IgG1, V domains shown)
VH: B4 VH with Q32S, G55D, G62Q, V68A, Y95F
VL: B4 VL with R34G, K79T, R82S, V83L, E84Q, G89A, Q105G, L109V
notes: IgG1; Fab in monovalent BLI
B12: in [2], the “Cell binding (FOB)” value is 86 fold over background. The “Soluble luciferase activation at 10 µg/ml” value in assay [10] was 6.52 fold over control.
